Data as given in patent US20240301052A1 (LANOVA MEDICINES DEVELOPMENT, published 2024).
Read-outs that look alike come from different tables or passages of the source.

T1: human SLC34A2 (human, UniProt O95436 1-690)
T1 construct: whole, on cells; also called human solute carrier 34 A2; NaPi2b
T1 sequence (looked up): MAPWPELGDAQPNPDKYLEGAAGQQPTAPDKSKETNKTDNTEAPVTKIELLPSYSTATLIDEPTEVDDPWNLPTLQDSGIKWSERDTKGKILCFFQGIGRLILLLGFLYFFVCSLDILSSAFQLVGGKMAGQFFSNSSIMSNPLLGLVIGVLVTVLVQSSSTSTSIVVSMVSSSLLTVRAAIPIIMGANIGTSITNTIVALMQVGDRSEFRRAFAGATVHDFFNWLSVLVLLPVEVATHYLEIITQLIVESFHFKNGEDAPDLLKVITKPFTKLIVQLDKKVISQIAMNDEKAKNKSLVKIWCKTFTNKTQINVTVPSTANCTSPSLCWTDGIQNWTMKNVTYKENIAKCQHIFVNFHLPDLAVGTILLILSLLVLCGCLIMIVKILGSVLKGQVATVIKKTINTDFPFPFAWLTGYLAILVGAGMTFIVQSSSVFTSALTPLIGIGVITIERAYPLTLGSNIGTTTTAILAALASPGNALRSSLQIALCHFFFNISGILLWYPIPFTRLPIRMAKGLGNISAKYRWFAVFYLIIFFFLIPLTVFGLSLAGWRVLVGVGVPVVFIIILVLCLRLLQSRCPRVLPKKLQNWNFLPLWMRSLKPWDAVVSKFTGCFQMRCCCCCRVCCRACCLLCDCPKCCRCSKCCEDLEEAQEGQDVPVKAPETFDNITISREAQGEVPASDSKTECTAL

T2: Cynomolgus SLC34A2 (Cynomolgus, UniProt A0A2K5UHY1 1-690)
T2 construct: whole, on cells; also called Cyno SLC34A2
T2 sequence: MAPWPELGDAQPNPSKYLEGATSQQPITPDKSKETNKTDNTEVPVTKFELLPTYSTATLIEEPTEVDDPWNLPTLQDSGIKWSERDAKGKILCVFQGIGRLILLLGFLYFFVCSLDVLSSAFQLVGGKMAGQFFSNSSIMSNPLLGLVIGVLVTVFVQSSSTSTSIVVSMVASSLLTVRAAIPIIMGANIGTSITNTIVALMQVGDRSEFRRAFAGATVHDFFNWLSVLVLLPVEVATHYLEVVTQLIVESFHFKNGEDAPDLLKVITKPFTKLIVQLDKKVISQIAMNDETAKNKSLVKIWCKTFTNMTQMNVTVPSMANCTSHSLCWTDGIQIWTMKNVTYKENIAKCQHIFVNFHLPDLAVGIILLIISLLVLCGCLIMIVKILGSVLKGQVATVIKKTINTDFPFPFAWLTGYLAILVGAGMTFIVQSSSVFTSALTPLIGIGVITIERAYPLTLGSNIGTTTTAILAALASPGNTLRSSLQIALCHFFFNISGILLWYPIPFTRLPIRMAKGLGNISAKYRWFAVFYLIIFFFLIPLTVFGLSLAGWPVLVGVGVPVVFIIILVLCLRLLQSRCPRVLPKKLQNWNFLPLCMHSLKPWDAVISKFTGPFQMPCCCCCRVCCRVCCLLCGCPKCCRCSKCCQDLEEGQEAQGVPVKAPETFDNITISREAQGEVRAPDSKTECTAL

T3: Rhesus SLC34A2 (Rhesus, UniProt F7HDA3 1-690)
T3 construct: whole, on cells
T3 sequence: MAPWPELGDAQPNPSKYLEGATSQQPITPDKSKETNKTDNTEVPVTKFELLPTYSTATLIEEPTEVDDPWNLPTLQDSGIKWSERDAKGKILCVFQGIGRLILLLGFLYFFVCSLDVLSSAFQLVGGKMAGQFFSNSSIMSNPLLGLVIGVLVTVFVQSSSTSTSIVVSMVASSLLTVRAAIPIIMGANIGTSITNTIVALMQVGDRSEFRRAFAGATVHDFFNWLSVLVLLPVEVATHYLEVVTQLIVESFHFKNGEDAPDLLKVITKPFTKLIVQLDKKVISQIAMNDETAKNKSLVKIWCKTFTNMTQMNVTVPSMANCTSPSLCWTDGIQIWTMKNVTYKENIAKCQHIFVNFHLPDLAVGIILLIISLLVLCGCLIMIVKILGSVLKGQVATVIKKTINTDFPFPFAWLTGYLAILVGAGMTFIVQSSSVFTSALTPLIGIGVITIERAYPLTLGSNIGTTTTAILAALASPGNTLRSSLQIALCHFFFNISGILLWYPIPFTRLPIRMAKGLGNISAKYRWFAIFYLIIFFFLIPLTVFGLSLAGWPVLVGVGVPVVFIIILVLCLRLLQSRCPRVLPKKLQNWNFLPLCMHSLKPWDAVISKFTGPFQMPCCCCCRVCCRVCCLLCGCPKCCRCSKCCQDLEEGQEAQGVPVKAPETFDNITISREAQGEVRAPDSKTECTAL


Columns and labels:
human SLC34A2 [1] = target: T1, human SLC34A2; test: FACS, OVCAR3 cells
Procedure: The binding of these humanized antibodies to OVCAR3 cells was evaluated as described above, and the results are shown in FIG. 12A-D and Tables 16A-D.

Cynomolgus SLC34A2 = target: T2, Cynomolgus SLC34A2; test: FACS, cells expressing Cynomolgus SLC34A2
human SLC34A2 [2] = target: T1, human SLC34A2; test: FACS, RMG-1 cells
Rhesus SLC34A2 [3] = target: T3, Rhesus SLC34A2; test: FACS, HEK293/Rhesus SLC34A2 cells
human SLC34A2 [4] = target: T1, human SLC34A2; test: FACS, OVCAR3 cells; remark: listed apart in the source
Method in brief: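 Chimeric hIgG1 antibodies titrated from 200 nM (4-fold, 8 points) on OVCAR3 cells or HEK293 cells expressing human SLC34A2, 60 min at 4° C. Bound antibody detected with fluorescent secondary antibody (30 min, 4° C) and measured by flow cytometry.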

human SLC34A2 [5] = target: T1, human SLC34A2; test: FACS, RMG-1 cells; remark: listed apart in the source
Method in brief: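 Flow-cytometric binding of chimeric antibodies (8-point, 4-fold dilutions from 200 nM) to RMG-1 cells, 60 min at 4° C, followed by fluorescent secondary antibody for 30 min at 4° C.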

Rhesus SLC34A2 [6] = target: T3, Rhesus SLC34A2; test: FACS, HEK293/Rhesus SLC34A2 cells; remark: listed apart in the source

| Binder | EC50 (human SLC34A2 [1]) [nM] | Top (MFI) (human SLC34A2 [1]) | EC50 (Cynomolgus SLC34A2) [nM] | EC50 (human SLC34A2 [2]) [nM] | EC50 (Rhesus SLC34A2 [3]) [nM] | EC50 (human SLC34A2 [4]) [nM] | Top (MFI) (human SLC34A2 [4]) | EC50 (human SLC34A2 [5]) [nM] | Top (MFI) (human SLC34A2 [5]) | EC50 (Rhesus SLC34A2 [6]) [nM] | Top (MFI) (Rhesus SLC34A2 [6]) |
| --- | --- | --- | --- | --- | --- | --- | --- | --- | --- | --- | --- |
| 62G10E4G8.p3.z15 hIgG1 (antibody, V domains shown, humanized hIgG1) VH: QVQLVQSGAEVVKPGASVKMSCKASGYTFPSYITHWVKQAPGQGLEWIGAIYPGNADTSYIQKFKGRATLTADKSTSTAYMELSSLRSEDTAVYYCARGTYGTSAWFTYWGQGTLVTVSS VL: EIVLTQSPATLSVSPGERATLSCRARQNIGNNLYWYQQKPGQSPRLLIKYASQSISGIPSRFSGSGSGTDFTLTISSLQSEDFAVYFCQQSFSWPLTFGQGTKLEIK | 3.76 | 27300 | 1.63 | 3.7 | 1.4 | – | – | – | – | – | – |
| xi30H9B8F9 hIgG1 (antibody, V domains shown, chimeric, hIgG1) VH: QVQLQQPGAELVKPGASVKMSCKTSGYTFTTNNMHWVKQTPGQGLEWIGAIYPGNGATAYNQKFKGKATLTADKSSSTAYMQLSSLTSEASAVYYCARGMYGHGAMDYWGQGTSVIVSS VL: DIVMTQSHKFMSRSVGDRVRITCKASQDVGTAVAWYQQKPGQSPKLLIYWATTRHSGVPDRFTGSGSGTDFIFTISNVQSEDLADYFCQQYSSNPLTFGAGTKLELK | 1.19 | 29300 | – | – | – | 0.53 | 41900 | 0.99 | 9470 | 1.9 | 47900 |
| 63A11D5B4.p1.z9 hIgG1 (antibody, V domains shown, humanized hIgG1) VH: QVQLVQSGAEVVKPGASVKMSCKTSGYTFITYNMHWVRQAPGQGLEWIGAIYPGSGDTSYNQKFKGRVTLTADKSTSTAYMELSSLRSEDTAVYYCSISTIITTGAVDYWGQGTLVTVSS VL: DIQMTQSPSSLSASVGDRVTITCKASQDVGTAVAWYQQKPGKVPKLLIYWTSTRHTGVPSRFSGSGSGTDFTLTISSLQPEDVATYYCQQYSRIPLTFGGGTKVEIK | – | – | 4.45 | 28.3 | 1.6 | – | – | – | – | – | – |
| 30H9B8F9.p1.z5 hIgG1 (antibody, V domains shown, humanized hIgG1) VH: QVQLVQSGAEVKKPGASVKVSCKTSGYTFTTNNMHWVRQAPGQGLEWIGAIYPGSGATAYNQKFKGRVTMTADTSTSTVYMELSSLRSEDTAVYYCARGMYGHGAMDYWGQGTLVTVSS VL: DIQLTQSPSFLSASVGDRVTITCKASQDVGTAVAWYQQKPGKAPKLLIYWATTRHSGVPSRFSGSGSGTEFTLTISSLQPEDFATYYCQQYSSNPLTFGQGTKLEIK | 1.43 | 26900 | 0.97 | 1.4 | 0.7 | – | – | – | – | – | – |
| 91C9F1.p1.z7 hIgG1 (antibody, V domains shown, humanized hIgG1) VH: QVQLVQSGAEVKKPGSSVKVSCKTSGFFFTEYIIHWVRQAPGQGLEWIGGIIPNNDVTNYKQNFRGRVTLTADKSTSTAYMELSSLRSEDTAVYYCARWRNAYYSAMDSWGQGTTVTVSS VL: DIQVTQSPSSLSTSVGDRVTITCTASQDVGTAVAWYQQKPGKSPKLLIYWASTRHTGVPERFTGSGSGTDFTLTISSVQPEDVATYFCQQYRTSPLTFGVGTKVEIK | – | – | 45.7 | 2.3 | 4.2 | – | – | – | – | – | – |

Continued, values first:

| EC50 (human SLC34A2 [1]) [nM] | Top (MFI) (human SLC34A2 [1]) | EC50 (Cynomolgus SLC34A2) [nM] | EC50 (human SLC34A2 [2]) [nM] | EC50 (Rhesus SLC34A2 [3]) [nM] | EC50 (human SLC34A2 [4]) [nM] | Top (MFI) (human SLC34A2 [4]) | EC50 (human SLC34A2 [5]) [nM] | Top (MFI) (human SLC34A2 [5]) | EC50 (Rhesus SLC34A2 [6]) [nM] | Top (MFI) (Rhesus SLC34A2 [6]) | Binder |
| --- | --- | --- | --- | --- | --- | --- | --- | --- | --- | --- | --- |
| 3.73 | 27600 | – | – | – | 2.55 | 43000 | 3.65 | 9370 | 3.7 | 39100 | xi62G10E4G8 hIgG1 (antibody, V domains shown, chimeric, hIgG1) VH: QVQLQQSGAEVVKPGASVKMSCKASGYTFPSYITHWVKQTPGQGLEWIGAIYPGNGDTSYIQKFKGKATLTADKSSSTAYMQLSSLTSEDSAVYYCARGTYGTSAWFTYWGQGTLVTVSA VL: DIVLTQSPATLSVTPGDSVSLSCRARQNIGNNLYWYQQKSHESPRLLIKYASQSISGIPSRFSGSGSGTDFTLTINSVETEDFGVYFCQQSFSWPLTFGAGTKLELK |
| – | – | – | – | – | 1.64 | 26400 | 1.3 | 9230 | 3.9 | 15500 | xi91C9F1 hIgG1 (antibody, V domains shown, chimeric, hIgG1) VH: EVQLQQSGPELVKPGTSVKISCKTSGFFFTEYIIHWVKQSHGRSLEWIGGIIPNNGVTNYKQNFRGKAALTADKSSNTAYMELRSLTSEDSAVYYCARWRNGYYSAMDSWGQGTSVTVSS VL: DIVVTQSHKFMSTSLGDRVSITCTASQDVGTAVAWYQQKPGHSPKLLIYWASTRHTGVPERFTGSGSGTDFTLTITNVQSEDLADYFCQQYRTSPLTFGVGTKLELK |
| – | – | – | – | – | 3.85 | 43000 | 5.32 | 9770 | 4.6 | 45500 | xi63A11D5B4 hIgG1 (antibody, V domains shown, chimeric, hIgG1) VH: QVQLQQPGAELVKPGASVKMSCRTSGYTFITYNMHWVKQTPGQGREWIGAIYPGNGDTSYNQKFKGKATLTADKSSSTAYMQLNSLTSEDSAVYYCSISTIITTGAVDYWGQGTSVTVAS VL: DIVMTQSHKFMSTSVGDRVSITCKASQDVGTAVAWYQQKAGQSPKLLIYWTSTRHTGVPDRFTGSGSGTDFTLIIRSLQSEDLADYFCQQYSRIPLTFGSGTKLEIK |
